Data published in patent publication US20180292408A1.

Legend:
[1] = target: β-gal-Core-192 (HCV-241) (hepatitis C virus); assay: sandwich ELISA, C7-50 capture, llama anti-serum detection
[2] = target: β-gal-Core-192 (HCV-241) (hepatitis C virus); assay: sandwich ELISA, C7-50 coated, detected with llama serum and HRP-goat-anti-llama antibody
[3] = target: β-gal-Core-192 (HCV-241) (hepatitis C virus); assay: lateral flow immunoassay, C7-50 labelled with colloidal gold, purified rabbit antibody on the test line

Chain of β-gal-Core-192 (HCV-241) (hepatitis C virus) (P00722 2-1024): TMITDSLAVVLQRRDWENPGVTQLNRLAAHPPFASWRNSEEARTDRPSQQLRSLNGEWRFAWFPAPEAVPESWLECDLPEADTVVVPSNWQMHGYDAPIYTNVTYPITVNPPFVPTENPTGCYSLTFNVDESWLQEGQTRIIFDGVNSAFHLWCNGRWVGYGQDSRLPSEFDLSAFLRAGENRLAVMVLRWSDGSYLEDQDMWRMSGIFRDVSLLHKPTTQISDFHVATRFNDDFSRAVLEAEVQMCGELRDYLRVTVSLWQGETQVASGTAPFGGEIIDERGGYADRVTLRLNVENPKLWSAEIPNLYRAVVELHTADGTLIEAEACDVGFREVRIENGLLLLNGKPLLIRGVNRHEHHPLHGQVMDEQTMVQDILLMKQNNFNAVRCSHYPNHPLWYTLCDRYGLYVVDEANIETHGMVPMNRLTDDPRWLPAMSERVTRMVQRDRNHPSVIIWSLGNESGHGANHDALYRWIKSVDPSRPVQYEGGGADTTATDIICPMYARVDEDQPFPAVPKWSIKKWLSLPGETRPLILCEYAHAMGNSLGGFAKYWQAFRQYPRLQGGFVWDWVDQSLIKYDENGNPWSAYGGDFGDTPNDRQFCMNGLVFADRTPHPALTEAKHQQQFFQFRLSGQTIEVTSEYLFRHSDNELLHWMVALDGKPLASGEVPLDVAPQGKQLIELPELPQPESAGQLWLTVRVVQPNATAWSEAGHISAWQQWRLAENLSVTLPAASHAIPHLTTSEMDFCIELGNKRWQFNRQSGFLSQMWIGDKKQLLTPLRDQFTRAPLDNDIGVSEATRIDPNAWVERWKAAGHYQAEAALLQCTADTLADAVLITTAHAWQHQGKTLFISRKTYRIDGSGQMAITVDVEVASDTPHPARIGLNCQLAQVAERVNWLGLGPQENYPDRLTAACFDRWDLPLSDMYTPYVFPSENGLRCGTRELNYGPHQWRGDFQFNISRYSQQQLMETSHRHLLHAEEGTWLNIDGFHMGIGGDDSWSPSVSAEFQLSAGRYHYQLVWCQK

Q: How did the detection limit of the sandwich ELISA [1] turn out when “mouse monoclonal antibody (clone C7-50), Abcam” was run?
A: < 40 ng/mL

Q: And the OD450 at 0 ng/ml antigen (background) [2]?
A: 0.181 OD450

Q: And the OD450 at 8 ng/ml antigen [2]?
A: 0.221 OD450

Q: What about the OD450 at 40 ng/ml antigen [2] of the same substance?
A: 0.214 OD450

Q: And the OD450 at 200 ng/ml antigen [2]?
A: 0.3 OD450

Q: And the OD450 at 1000 ng/ml antigen [2]?
A: 0.494 OD450

Q: And the OD450 at 5000 ng/ml antigen [2]?
A: 1.74 OD450

Q: What about the OD450 at 25000 ng/ml antigen [2] of the same substance?
A: 2.18 OD450

Q: What about the OD450 at 125000 ng/ml antigen [2] of the same substance?
A: 2.27 OD450

Q: And the antigen concentration detected in LFIA [3]?
A: 0.3 ng/µL
